# Measurements taken from US20240092891A1 (SANYOU BIOPHARMACEUTICALS, published 2024).
# Changes are numbered by the printed parent chain.
# B1: IMAB362 antibody (antibody, V domains shown)
# VH: QVQLQQPGAELVRPGASVKLSCKASGYTFTSYWINWVKQRPGQGLEWIGNIYPSDSYTNYNQKFKDKATLTVDKSSSTAYMQLSSPTSEDSAVYYCTRSWRGNSFDYWGQGTTLTVSS
# VL: DIVMTQSPSSLTVTAGEKVTMSCKSSQSLLNSGNQKNYLTWYQQKPGQPPKLLIYWASTRESGVPDRFTGSGSGTDFTLTISSVQAEDLAVYYCQNDYSYPFTFGSGTKLEIKR
# B2: humanized antibody NA4-S-H7 (Fc fusion)
# chain: EVQLVESGGGLVQPGGSLRLSCAASGSIFSINVMGWYRQAPGKQRELVAGISTGGTTRYADSVKGRFTISRDNAKNTLYLQMNSLRAEDTAVYYCNADLATATSWPVRYLEVWGQGTLVTVSS
# notes: not shown: Fc part implied (detected with anti-human IgG Fc; parent molecule in CDC/ADCC)
# B3: clone NA4-S, VHH displayed on phage (VHH)
# VHH: B2 chain with L4V, V63A, L78V, R86K, A87P, S123A
# notes: also called NA4-S (phage supernatant); candidate nanobody NA4-S
# B4: clone NA7-S, VHH displayed on phage (VHH)
# VHH: EVQVQESGGGLVQPGGSLRLSCAASGSFFRIVAMGWYRQAPGSQRELVATITRGGSTYYADSMKGRSTISRDNAKNTVYLQMNSLKPEDTAVYYCNVRVEVPFMQPNDYWGHGTQVTVSS
# notes: also called NA7-S (phage supernatant); candidate nanobody NA7-S
# B5: humanized antibody NA7-S-H2 (Fc fusion)
# chain: B4 VHH with V4L, Q5V, S43K, Q44G, H112Q, Q115L
# notes: as for B2
# Experiments:
# [1] = molecular target: human CLDN18.2 (human); assay: cell-based or functional assay
# [2] = molecular target: T1, human CLDN18.1 (human, UniProt P56856 1-261); assay: flow cytometry, binding intensity on human CLDN18.1-HEK293 cells at different concentrations
# T1 construct: Overexpressed on HEK293 cells; also called human CLDN18.1-HEK293
# Experimental: Therefore, antibodies (including a high concentration of 100 μg/mL) at different concentrations were used to be incubated with human CLDN18.1-HEK293 in vitro in this example. The method was as described in section 1.3.1, wherein antibodies at different concentrations were incubated with target cells human CLDN18.1-HEK293 at 4° C. for 1 h. Next, the resulting cultures were rinsed three times with the above-mentioned FACS buffer. 0.5 μg (0.5 mg/ml) of PE-labeled goat anti-human IgG Fc antibody (Abcam, ab98596) was added, and the resulting mixture was incubated at 4° C. for 1 h, and then rinsed three times with the FACS buffer.
# [3] = molecular target: T2, human CLDN18.2 (human); assay: flow cytometry on human CLDN18.2-HEK293T cells
# T2 construct: also called CLD18A2; huCLDN18.2
# [4] = molecular target: T1, human CLDN18.1; assay: flow cytometry with phage supernatant, anti-M13 antibody, on human CLDN18.1-HEK293 cells
# Text: Firstly, 1×10⁵ human CLDN18.2-HEK293T and human CLDN18.1-HEK293 cells were taken, respectively and centrifuged at a low speed of 500 g, and the supernatant was removed.
# T1 sequence (P56856 whole entry): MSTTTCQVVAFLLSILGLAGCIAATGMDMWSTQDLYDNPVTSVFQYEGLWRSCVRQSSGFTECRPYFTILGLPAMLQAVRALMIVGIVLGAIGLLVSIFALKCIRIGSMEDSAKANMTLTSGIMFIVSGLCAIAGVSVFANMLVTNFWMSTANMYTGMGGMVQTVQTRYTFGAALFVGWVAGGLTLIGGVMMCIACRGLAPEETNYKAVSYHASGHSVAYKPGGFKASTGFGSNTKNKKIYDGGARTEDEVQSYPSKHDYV
binder,measurement,setting,value
B1,"EC50 of ADCC cell killing effect (LDH release, human PBMC) on human CLDN18.2-HEK293T cells, run with NA7-S",[1],0.0862 nM
same,"EC50 of ADCC cell killing effect (LDH release, human PBMC) on human CLDN18.2-HEK293T cells, run with NA8-S",[1],0.0636 nM
same,"EC50 of CDC cell killing effect (MTS) on human CLDN18.2-HEK293T cells, run with NA4-S",[1],0.613 nM
same,"EC50 of CDC cell killing effect (MTS) on human CLDN18.2-HEK293T cells, run with NA7-S",[1],0.628 nM
same,"EC50 of CDC cell killing effect (MTS) on human CLDN18.2-HEK293T cells, run with NA8-S",[1],1.86 nM
same,"EC50 of CDC cell killing effect (MTS) on human CLDN18.2-KATOIII tumor cells, run with NA7-S",[1],69.8 nM
same,"EC50 of CDC cell killing effect (MTS) on human CLDN18.2-KATOIII tumor cells, run with NA8-S",[1],1860 nM
same,"IC50 of Fab-ZAP cell killing (endocytosis, MTS) on CLDN18.2-HEK293T cells, run with NA7-S",[1],0.128 nM
same,"IC50 of Fab-ZAP cell killing (endocytosis, MTS) on CLDN18.2-HEK293T cells, run with NA8-S",[1],0.136 nM
B2,binding result,[2],no binding (tested: 100 µg/mL)
same,EC50,[3],0.877 µg/mL
same,binding intensity (MFI) at the highest concentration,[3],128000 MFI
B3,binding result,[4],no binding
B4,binding result,[4],no binding
B5,EC50,[3],0.482 µg/mL
same,binding intensity (MFI) at the highest concentration,[3],184000 MFI
